Data set [1] concerns the target His6-tagged mSecA1 (Arabidopsis) (UniProt Q9SYI0).
Substrate in data set [2]: Nc1ncnc2c1ncn2[C@@H]1O[C@H](COP(=O)(O)OP(=O)(O)OP(=O)(O)O)[C@@H](O)[C@H]1O
Kind of data set: ATPase, NADH-coupled (pyruvate kinase / lactate dehydrogenase); radicicol-sensitive activity. The format is biochemical, Arabidopsis thaliana. The note with it: pH 7.5, 5 mM MgCl2, 500 mM KCl, HSP90C alone, called ATP binding affinity.

Sequence of His6-tagged mSecA1 (Arabidopsis) (Q9SYI0 73-1022): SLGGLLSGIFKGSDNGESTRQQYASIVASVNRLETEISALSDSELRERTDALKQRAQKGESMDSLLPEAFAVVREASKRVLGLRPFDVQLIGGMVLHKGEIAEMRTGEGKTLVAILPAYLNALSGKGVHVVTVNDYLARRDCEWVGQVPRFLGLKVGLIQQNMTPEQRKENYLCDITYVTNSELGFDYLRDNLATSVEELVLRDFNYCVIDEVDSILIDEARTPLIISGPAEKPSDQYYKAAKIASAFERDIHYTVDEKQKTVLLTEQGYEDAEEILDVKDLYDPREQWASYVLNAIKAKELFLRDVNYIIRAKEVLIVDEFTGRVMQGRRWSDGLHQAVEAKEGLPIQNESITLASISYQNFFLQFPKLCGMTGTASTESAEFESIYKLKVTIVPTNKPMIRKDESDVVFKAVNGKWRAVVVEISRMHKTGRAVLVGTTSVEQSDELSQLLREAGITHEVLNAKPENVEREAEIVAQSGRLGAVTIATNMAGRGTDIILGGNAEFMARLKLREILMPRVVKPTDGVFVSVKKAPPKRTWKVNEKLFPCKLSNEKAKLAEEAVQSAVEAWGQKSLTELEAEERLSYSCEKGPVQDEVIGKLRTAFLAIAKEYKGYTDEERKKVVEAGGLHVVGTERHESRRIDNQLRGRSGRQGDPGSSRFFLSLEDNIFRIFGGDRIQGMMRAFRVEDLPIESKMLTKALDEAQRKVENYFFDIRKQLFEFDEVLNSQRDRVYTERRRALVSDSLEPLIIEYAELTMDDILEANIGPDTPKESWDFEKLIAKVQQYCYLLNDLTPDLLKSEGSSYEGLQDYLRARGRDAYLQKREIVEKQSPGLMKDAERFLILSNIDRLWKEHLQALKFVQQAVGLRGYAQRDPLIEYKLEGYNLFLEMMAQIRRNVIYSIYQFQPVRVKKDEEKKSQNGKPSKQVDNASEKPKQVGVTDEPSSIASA

Regarding “His6-tagged HSP90C (from UniProt Q9SIF2 61-780) (natural protein)”, in data set [1], the combined ATP turnover rate (kcat) of the equimolar mixture SecA1 + HSP90C (1.41 μM each), NADH-coupled assay at 5 mM ATP; sum of the two proteins' own average rates 2.93 min^−1 worked out at 0.0581 s⁻¹ and the rise of the ATP turnover rate of SecA1 + HSP90C + PsbO1 (equimolar) relative to the SecA1 + HSP90C mixture, NADH-coupled assay turned out to be 16%.

B1: HSP90C (Arabidopsis thaliana) (protein)
chain: CDAAVAEKETTEEGSGEKFEYQAEVSRLLDLIVHSLYSHKEVFLRELVSNASDALDKLRFLSVTEPSLLGDGGDLEIRIKPDPDNGTITITDTGIGMTKEELIDCLGTIAQSGTSKFLKALKENKDLGADNGLIGQFGVGFYSAFLVAEKVVVSTKSPKSDKQYVWESVADSSSYLIREETDPDNILRRGTQITLYLREDDKYEFAESTRIKNLVKNYSQFVGFPIYTWQEKSRTIEVEEDEPVKEGEEGEPKKKKTTKTEKYWDWELANETKPLWMRNSKEVEKGEYNEFYKKAFNEFLDPLAHTHFTTEGEVEFRSILYIPGMGPLNNEDVTNPKTKNIRLYVKRVFISDDFDGELFPRYLSFVKGVVDSDDLPLNVSREILQESRIVRIMRKRLIRKTFDMIQEISESENKEDYKKFWENFGRFLKLGCIEDTGNHKRITPLLRFFSSKNEEELTSLDDYIENMGENQKAIYYLATDSLKSAKSAPFLEKLIQKDIEVLYLVEPIDEVAIQNLQTYKEKKFVDISKEDLELGDEDEVKDREAKQEFNLLCDWIKQQLGDKVAKVQVSNRLSSSPCVLVSGKFGWSANMERLMKAQALGDTSSLEFMRGRRILEINPDHPIIKDLNAACKNAPESTEATRVVDLLYDTAIISSGFTPDSPAELGNKIYEMMAMAVGGRWGRVEEEEESSTVNEGDDKSGETEVVEPSEVRAESDPWQD
notes: His6-tagged HSP90C (pProEX HTb), E. coli BL21(DE3)-pRIL, Ni-NTA and Superdex 200
B1: the Km (usually the substrate concentration at which the rate is half of its maximum) in data set [2] worked out at 4.01 mM.

These data come from publication PMC11085213, “Plastid Molecular Chaperone HSP90C Interacts with the SecA1 Subunit of Sec Translocase for Thylakoid Protein Transport” (Plants, 2024).
